Data published in patent US6787341B2, “Pharmacological targeting of bacterial DNA ligase for treatment and prevention of bacterial infections” (priority 2001, dated 2004).

Columns and labels:
E. coli LigA [1] = format: biochemical; settings: specific activity by protein titration under steady-state conditions, normalized to wild-type ligase
Experimental: (§1) FIG. 12A: Aliquots (5 μg) of wild-type (WT) E. coli ligase, N-terminal deletion mutants NΔ38 and NΔ78, and the full-length ligase proteins containing the indicated alanine mutations in domain Ia were analyzed by SDS-PAGE. A Coomassie blue-stained gel is shown. FIG. 12B: Ligase adenylation reaction mixtures (20 μl) containing 50 mM Tris-HCl (pH 7.5), 5 mM DTT, 5 mM MgCl2, 1 μM [α-^32P]NAD^+ and 8 pmol of WT ligase, NΔ38, NΔ78, or the indicated alanine mutants were incubated for 5 min at 37° C. The reaction products were resolved by SDS-PAGE and visualized by autoradiography. FIG. 12C: Nick joining reaction mixtures (20 μl) containing 50 mM Tris-HCl (pH 7.5), 10 mM (NH4)2SO4, 5 mM DTT, 5 mM MgCl2, 20 μM NAD^+, 1 pmol of ^32P-labeled nicked DNA, and increasing amounts of WT ligase or the indicated alanine mutants were incubated for 10 min at 22° C. The extents of ligation are plotted as a function of input protein.
To further probe the role of domain Ia in NAD^+ recognition and nucleotidyl transfer, single alanine substitutions were introduced at six positions in the Ia domain of E. coli LigA. The six mutated Eco ligase residues—Glu10, Tyr22, His23, Asp32, Tyr35, and Asp36—correspond to the six residues that were subjected to alanine scanning mutagenesis in AmEPV ligase (FIG. 11). […] The conserved positions are denoted by shaded boxes in FIG. 11. The Eco ligase mutants E10A, Y22A, H23A, D32A, Y35A, and D36A were produced in E. coli and purified by Ni-agarose chromatography in parallel with wild-type ligase (FIG. 12A).
To evaluate the roles of charge, hydrogen bonding potential, and steric constraints in the functions of the domain Ia residues implicated in the step 1 reaction with NAD^+, the effects of conservative substitutions were tested. Tyr22 and Tyr35 were replaced by Phe and Ser, His23 was changed to Tyr, and Asp32 and Asp36 were mutated to Glu and Asn. The recombinant mutant ligases were purified from soluble bacterial extracts by Ni-agarose chromatography (FIG. 15A). The specific activity of each mutant was determined under steady-state conditions by protein titration and normalized to the specific activity of wild-type ligase.

E. coli LigA [2] = format: biochemical; settings: for rate of ligase adenylation (kinetic pattern): 1 μM [32P-AMP]NAD+, 15-120 s; for ligase adenylation (ligase-AMP formation) with NAD+: qualitative
Experimental: as §1
FIG. 15A: Aliquots (5 μg) of wild-type (WT) E. coli ligase and proteins containing the indicated mutations in domain Ia were analyzed by SDS-PAGE. The Coomassie blue-stained gel is shown. The positions and sizes (in kDa) of marker proteins are indicated on the left. FIG. 15B: Ligase adenylation reaction mixtures (20 μl) containing 50 mM Tris-HCl (pH 7.5), 5 mM DTT, 5 mM MgCl2, 1 μM [α-^32P]NAD^+ and 8 pmol of WT ligase or the indicated mutants were incubated for 5 min at 37° C. The reaction products were resolved by SDS-PAGE and visualized by autoradiography.
Reaction mixtures containing (per 20 μl) 50 mM Tris-HCl (pH 7.5), 5 mM DTT, 5 mM MgCl2, 1 μM [^32P-AMP]NAD^+ and 8 pmol of ligase were incubated at 22° C. Aliquots (20 μl) were withdrawn at 15, 30, 60 and 120 s and then quenched immediately with SDS. The products were analyzed by SDS-PAGE. Formation of the ligase-[^32P]AMP adduct is plotted as a function of time.
The first step in DNA ligation involves formation of a covalent enzyme-adenylate intermediate.

B1: D32N: E. coli LigA with Asp32 mutated to Asn (protein, UniProt P15042 1-671, looked up, variant D32N)
DNA ligase: MESIEQQLTELRTTLRHHEYLYHVMDAPEIPNAEYDRLMRELRELETKHPELITPDSPTQRVGAAPLAAFSQIRHEVPMLSLDNVFDEESFLAFNKRVQDRLKNNEKVTWCCELKLDGLAVSILYENGVLVSAATRGDGTTGEDITSNVRTIRAIPLKLHGENIPARLEVRGEVFLPQAGFEKINEDARRTGGKVFANPRNAAAGSLRQLDPRITAKRPLTFFCYGVGVLEGGELPDTHLGRLLQFKKWGLPVSDRVTLCESAEEVLAFYHKVEEDRPTLGFDIDGVVIKVNSLAQQEQLGFVARAPRWAVAFKFPAQEQMTFVRDVEFQVGRTGAITPVARLEPVHVAGVLVSNATLHNADEIERLGLRIGDKVVIRRAGDVIPQVVNVVLSERPEDTREVVFPTHCPVCGSDVERVEGEAVARCTGGLICGAQRKESLKHFVSRRAMDVDGMGDKIIDQLVEKEYVHTPADLFKLTAGKLTGLERMGPKSAQNVVNALEKAKETTFARFLYALGIREVGEATAAGLAAYFGTLEALEAASIEELQKVPDVGIVVASHVHNFFAEESNRNVISELLAEGVHWPAPIVINAEEIDSPFAGKTVVLTGSLSQMSRDDAKARLVELGAKVAGSVSKKTDLVIAGEAAGSKLAKAQELGIEVIDEAEMLRLLGS
Q: How did the “Nick Joining Activity (% of WT)” value (E. coli LigA [1]) turn out when B1 was run?
A: 9 % of WT

Q: And the “rate of ligase adenylation (kinetic pattern)” value (E. coli LigA [2])?
A: faster than D32E

Q: What about the “ligase adenylation (ligase-AMP formation) with NAD+” value (from here on “ligase adenylation … with NAD+”) (E. coli LigA [2]) of the same molecule?
A: partially active

B2: D36N: E. coli LigA with Asp36 mutated to Asn (protein, UniProt P15042 1-671, looked up, variant D36N)
DNA ligase: MESIEQQLTELRTTLRHHEYLYHVMDAPEIPDAEYNRLMRELRELETKHPELITPDSPTQRVGAAPLAAFSQIRHEVPMLSLDNVFDEESFLAFNKRVQDRLKNNEKVTWCCELKLDGLAVSILYENGVLVSAATRGDGTTGEDITSNVRTIRAIPLKLHGENIPARLEVRGEVFLPQAGFEKINEDARRTGGKVFANPRNAAAGSLRQLDPRITAKRPLTFFCYGVGVLEGGELPDTHLGRLLQFKKWGLPVSDRVTLCESAEEVLAFYHKVEEDRPTLGFDIDGVVIKVNSLAQQEQLGFVARAPRWAVAFKFPAQEQMTFVRDVEFQVGRTGAITPVARLEPVHVAGVLVSNATLHNADEIERLGLRIGDKVVIRRAGDVIPQVVNVVLSERPEDTREVVFPTHCPVCGSDVERVEGEAVARCTGGLICGAQRKESLKHFVSRRAMDVDGMGDKIIDQLVEKEYVHTPADLFKLTAGKLTGLERMGPKSAQNVVNALEKAKETTFARFLYALGIREVGEATAAGLAAYFGTLEALEAASIEELQKVPDVGIVVASHVHNFFAEESNRNVISELLAEGVHWPAPIVINAEEIDSPFAGKTVVLTGSLSQMSRDDAKARLVELGAKVAGSVSKKTDLVIAGEAAGSKLAKAQELGIEVIDEAEMLRLLGS
Q: For B2, which “Nick Joining Activity (% of WT)” value (E. coli LigA [1]) is on record?
A: 12 % of WT

Q: And the “rate of ligase adenylation (kinetic pattern)” value (E. coli LigA [2])?
A: faster than D36E

Q: And the “ligase adenylation … with NAD+” value (E. coli LigA [2])?
A: partially active

B3: D32E: E. coli LigA with Asp32 mutated to Glu (protein, UniProt P15042 1-671, looked up, variant D32E)
DNA ligase: MESIEQQLTELRTTLRHHEYLYHVMDAPEIPEAEYDRLMRELRELETKHPELITPDSPTQRVGAAPLAAFSQIRHEVPMLSLDNVFDEESFLAFNKRVQDRLKNNEKVTWCCELKLDGLAVSILYENGVLVSAATRGDGTTGEDITSNVRTIRAIPLKLHGENIPARLEVRGEVFLPQAGFEKINEDARRTGGKVFANPRNAAAGSLRQLDPRITAKRPLTFFCYGVGVLEGGELPDTHLGRLLQFKKWGLPVSDRVTLCESAEEVLAFYHKVEEDRPTLGFDIDGVVIKVNSLAQQEQLGFVARAPRWAVAFKFPAQEQMTFVRDVEFQVGRTGAITPVARLEPVHVAGVLVSNATLHNADEIERLGLRIGDKVVIRRAGDVIPQVVNVVLSERPEDTREVVFPTHCPVCGSDVERVEGEAVARCTGGLICGAQRKESLKHFVSRRAMDVDGMGDKIIDQLVEKEYVHTPADLFKLTAGKLTGLERMGPKSAQNVVNALEKAKETTFARFLYALGIREVGEATAAGLAAYFGTLEALEAASIEELQKVPDVGIVVASHVHNFFAEESNRNVISELLAEGVHWPAPIVINAEEIDSPFAGKTVVLTGSLSQMSRDDAKARLVELGAKVAGSVSKKTDLVIAGEAAGSKLAKAQELGIEVIDEAEMLRLLGS
Q: Which “Nick Joining Activity (% of WT)” value (E. coli LigA [1]) does the source give for B3 here?
A: 0.4 % of WT

Q: And the “ligase adenylation … with NAD+” value (E. coli LigA [2])?
A: more severely affected

B4: D36E: E. coli LigA with Asp36 mutated to Glu (protein, UniProt P15042 1-671, looked up, variant D36E)
DNA ligase: MESIEQQLTELRTTLRHHEYLYHVMDAPEIPDAEYERLMRELRELETKHPELITPDSPTQRVGAAPLAAFSQIRHEVPMLSLDNVFDEESFLAFNKRVQDRLKNNEKVTWCCELKLDGLAVSILYENGVLVSAATRGDGTTGEDITSNVRTIRAIPLKLHGENIPARLEVRGEVFLPQAGFEKINEDARRTGGKVFANPRNAAAGSLRQLDPRITAKRPLTFFCYGVGVLEGGELPDTHLGRLLQFKKWGLPVSDRVTLCESAEEVLAFYHKVEEDRPTLGFDIDGVVIKVNSLAQQEQLGFVARAPRWAVAFKFPAQEQMTFVRDVEFQVGRTGAITPVARLEPVHVAGVLVSNATLHNADEIERLGLRIGDKVVIRRAGDVIPQVVNVVLSERPEDTREVVFPTHCPVCGSDVERVEGEAVARCTGGLICGAQRKESLKHFVSRRAMDVDGMGDKIIDQLVEKEYVHTPADLFKLTAGKLTGLERMGPKSAQNVVNALEKAKETTFARFLYALGIREVGEATAAGLAAYFGTLEALEAASIEELQKVPDVGIVVASHVHNFFAEESNRNVISELLAEGVHWPAPIVINAEEIDSPFAGKTVVLTGSLSQMSRDDAKARLVELGAKVAGSVSKKTDLVIAGEAAGSKLAKAQELGIEVIDEAEMLRLLGS
Q: With B4 as the molecule, how does the “Nick Joining Activity (% of WT)” value (E. coli LigA [1]) read?
A: 4 % of WT

Q: What about the “ligase adenylation … with NAD+” value (E. coli LigA [2]) of the same molecule?
A: more severely affected
